How the values were obtained:
[1] = molecular target: GP88 cell surface receptors on CCL64 mink lung epithelial cells (mink); assay: Scatchard analysis, 125I-rGP88 displaced by cold rGP88 on CCL64 cells in suspension; high affinity class of sites
[2] = molecular target: GP88 cell surface receptors on CCL64 mink lung epithelial cells (mink); assay: Scatchard analysis, 125I-rGP88 on CCL64 cells; low affinity class of sites
[3] = molecular target: GP88 cell surface receptors on CCL64 mink lung epithelial cells (mink); assay: Scatchard analysis, 125I-rGP88 displaced by cold rGP88 on CCL64 cells in suspension; low affinity class of sites
[4] = molecular target: GP88 cell surface receptors on CCL64 mink lung epithelial cells (mink); assay: Scatchard analysis, 125I-rGP88 on CCL64 cells; high affinity class of sites

B1: recombinant GP88 (rGP88), mouse GP88 expressed in baculovirus infected Sf9 insect cells (ligand)
chain: TQCPDGQFCPVACCLDQGGANYSCCNPLLDTWPRITSHHLDGSCQTHGHCPAGYSCLLTVSGTSSCCPFSKGVSCGDGYHCCPQGFHCSADGKSCFQMSDNPLGAVQCPGSQFECPDSATCCIMVDGSWGCCPMPQASCCEDRVHCCPHGASCDLVHTRCVSPTGTHTLLKKFPAQKTNSAVSLPFSVVCPDAKTQCPDDSTCCELPTGKYGCCPMPNAICCSDHLHCCPQDTVCDLIQSKCLSKNYTTDLLTKLPGYPVKEVKCDMEVSCPEGYTCCRLNTGAWGCCPFAKAVCCDDHIHCCPAGFQCHTEKGTCEMGILQVGWMKKVIAPLRLPDPQILKSDTPCDDFTRCPTNNTCCKLNSGDWGCCPIPEAVCCSDNQHCCPQGFTCLAQGYCQKGDTMVAGLEKIPARQTTPLQIGDIGCDQHTSCPVGQTCCPSLKGSWACCQLPHAVCCEDRQHCCPAGYTCNVKARTCEKDVDFIQPPVLLTLGPKVGNVECGEGHFCHDNQTCCKDSAGVWACCPYLKGVCCRDGRHCCPGGFHCSARGTKCLRKKIPRWDMFLRDPVPRPLL
modifications: the labelled form is 125I-iodinated by the chloramine T method (residues not stated)
Work on B1 yielded a Kd [1] of 0.043 nM, a sites/cell [2] of 17000 sites/cell and a Kd [3] of 3.9 nM. It also gave a sites/cell [4] of 560 sites/cell.

— patent publication US6670183
